The text below walks through data of patent CN116510007A.

This test deals with 人IL-11Rα (全长基因, stably expressed on STAT3-luc HEK293 cells) (human) (UniProt Q14626). The test is described as follows: cell-based or functional assay.
Sequence of UniProt Q14626 (Q14626 23-422): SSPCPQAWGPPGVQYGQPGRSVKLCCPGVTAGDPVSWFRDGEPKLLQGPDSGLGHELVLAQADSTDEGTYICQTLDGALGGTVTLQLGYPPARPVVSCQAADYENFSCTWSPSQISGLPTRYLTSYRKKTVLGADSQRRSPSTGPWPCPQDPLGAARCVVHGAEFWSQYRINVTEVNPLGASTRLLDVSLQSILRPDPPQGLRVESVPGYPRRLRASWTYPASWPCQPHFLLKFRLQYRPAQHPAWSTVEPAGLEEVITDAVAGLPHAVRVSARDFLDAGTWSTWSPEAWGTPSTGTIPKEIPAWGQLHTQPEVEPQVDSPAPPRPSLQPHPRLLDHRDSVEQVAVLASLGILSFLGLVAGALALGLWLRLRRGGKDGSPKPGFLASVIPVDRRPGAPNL

As to IL-11 (ligand), the IL-11刺激STAT3报告基因转录表达的EC50 was 0.11 ng/mL.
